Measured values published in the supplement of paper PMC11865577.

How the values were obtained:
Assay in all cases: pull-down binding Z-score (relative to library population); higher = stronger binding
[1] = tested on: G-clamp-N3 (biotin conjugate); details: RNA library: Library-1 (pre-miRNA loops + repeats)
Procedure, shortened: (§1)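 Cy5- or Cy3-end-labelled RNA library (1 μg) was heat-folded in phosphate/NaCl/KCl buffer and incubated 60 min at 25 °C with streptavidin beads carrying 100 pmol biotin-conjugated small molecule. After three washes, bound RNA was eluted in hot SDS and hybridised 20 h at 55.5 °C to a DNA barcode microarray. Binding was scored by subtracting a beads-only control, averaging barcoded replicate probes after dropping highest and lowest, and converting to a Z-score against library mean and standard deviation.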

[2] = tested on: TO-3-N3 (biotin conjugate); details: RNA library: Library-2
Procedure, shortened: as §1

TO-N3 (biotin conjugate) = details: RNA library: Library-2
Procedure, shortened: as §1

[3] = tested on: TO-N3-2 (biotin conjugate); details: RNA library: Library-2
Procedure, shortened: as §1

[4] = tested on: TO-3-N3-2 (biotin conjugate); details: RNA library: Library-2
Procedure, shortened: as §1

Sequence | pull-down binding Z-score [1] | pull-down binding Z-score [2] | pull-down binding Z-score (TO-N3 (biotin conjugate)) | pull-down binding Z-score [3] | pull-down binding Z-score [4]
CUGGAGUCGCCUGAGUCAUCACUCAG [hsa-mir-3065] | -0.66 | -0.142 | 0.0597 | 0.525 | -0.276
CUGGCAUUUACGAGUCAGAGUUCUUACAGAGCUGC [hsa-mir-6514] | -1.37 | 0.163 | 0.639 | 1.48 | 0.16
CUGGCCAUCAGUGUGGGCUAAC [hsa-mir-6732] | -0.237 | -0.0637 | 0.33 | 0.569 | -0.117
CUGGCUGGUCCAGCCCCUCAGAAG [hsa-mir-6796] | -0.944 | 1.16 | 1.39 | 1.47 | 0.4
CUGGCUUCUCUGGUUCUCCAGCUUACAG [hsa-mir-1269b] | -1.06 | -0.401 | -0.0501 | 0.333 | -0.356
CUGGGAAGAGACCAUGAACAGGUUAGUCCAG [hsa-mir-4327] | -0.176 | 0.385 | 0.536 | -0.495 | -0.286
CUGGGAAGGGAGCUGUCCGGCUCCCCAG [hsa-mir-3155b] | 2.41 | -0.412 | -0.53 | -0.136 | -0.263
CUGGGAGGUGUGAUAUCGUGGUUCCUGG [hsa-mir-3689c] | 0.718 | 1.02 | 1.13 | 0.744 | 0.136
CUGGGAGGUGUGAUCCCGUGCUUCCUGG [hsa-mir-3689b] | -0.593 | -0.788 | -0.713 | 0.409 | -0.408
CUGGGAGGUGUGAUCCUGUGCUUCCUGG [hsa-mir-3689a] | -0.339 | 0.678 | 0.863 | 1.15 | 0.507
CUGGGGACUGUGUGGACUGGUAUCACCCAG [hsa-mir-2278] | 0.134 | -0.242 | 0.225 | 0.585 | -0.298
CUGGGGAGCCGGACAGCUCCCUUCCCAG [hsa-mir-3155a] | 0.802 | 0.918 | 0.7 | -0.0145 | -0.168
CUGGGGGAAGGCUCCAGACCCCAGCCU [hsa-mir-4267] | -0.401 | 0.793 | 1.19 | 1.37 | 0.331
CUGGGGUUGGAAUGUGACCCCA [hsa-mir-4654] | -0.709 | 0.425 | 0.541 | 0.687 | -0.171
CUGGGUCCUCUGUGCAGGGUCUUACCCAG [hsa-mir-7850] | -0.833 | -0.3 | -0.253 | 0.337 | -0.415
CUGGGUGGGACACUCAG [hsa-mir-4692] | -0.443 | 1.24 | 0.91 | 0.0278 | 0.311
CUGGGUUCGGCUGCUACCCCAAA [hsa-mir-6768] | -1.38 | 0.179 | 0.563 | 0.742 | 0.195
CUGGGUUCUUAGAGGCCUAAUCCUCUACAAACUCAGUUU [hsa-mir-4305] | -1.01 | -0.124 | 0.144 | 0.546 | -0.258
CUGGUAGUAUAAAACCCAG [hsa-mir-934] | 0.805 | -0.0745 | -0.151 | -0.468 | -0.114

Sequence | pull-down binding Z-score [1] | pull-down binding Z-score [2] | pull-down binding Z-score (TO-N3 (biotin conjugate)) | pull-down binding Z-score [3] | pull-down binding Z-score [4]
CUGGUGUUCUCACGCAAAGUGGCCAGGGUGUGGGAGACUAGA [hsa-mir-7161] | 2.32 | 0.688 | 1.14 | 1.34 | 0.556
CUGUAUGUCCUAACAGUGCUUGUAG [hsa-mir-4794] | -0.4 | -0.28 | 0.0771 | 0.46 | -0.0698
CUGUCCCCUGCCACUGGGUGACC [hsa-mir-7114] | -0.449 | 0.262 | 0.471 | 0.894 | 0.144
CUGUCCUGGACUGGGGUCAGACUGUGCCCCGAGGAGAAGCAG [hsa-mir-922] | 0.368 | -0.2 | 0.794 | 1.47 | -0.166
CUGUCUGUUGUAUAAAAGAAAAGAUCG [hsa-mir-517a] | -0.46 | 0.157 | 0.594 | 1 | 0.743
CUGUCUGUUGUCUAAGAAAAGAUCG [hsa-mir-517c_517b] | 0.565 | -0.481 | -0.0242 | 0.202 | 0.294
CUGUGAAUCCAAGAUCCACA [hsa-mir-4527] | -1.57 | -0.439 | -0.39 | -0.241 | -0.489
CUGUGACGUGCUCCAUCACCGGGCAG [hsa-mir-3714] | 0.138 | -0.37 | -0.0254 | 0.847 | -0.391
CUGUGAGGACAUCCAGGGUCACAG [hsa-mir-125a] | 3.76 | 0.423 | 0.903 | 0.969 | 0.169
CUGUGAUAACAACUCAG [hsa-mir-4705] | -1.06 | 0.564 | 0.29 | -0.508 | -0.23
CUGUGCAGAACAUCCGCUCACCUGUACAG [hsa-mir-214] | 0.104 | 0.0427 | 0.0753 | 0.171 | -0.43
CUGUGCAGGGCCAACUGUGCACAC [hsa-mir-3681] | 0.785 | 0.827 | 1.15 | 1.14 | 0.227
CUGUGCUGUCUCUGAGCACCG [hsa-mir-6827] | 0.0113 | 0.0475 | 0.322 | 0.586 | -0.348
CUGUGGCCGGUCCCAG [hsa-mir-4656] | -0.405 | 1.39 | 1.45 | 0.902 | -0.0683
CUGUGGUCUAACCUUUCCCAUCU [hsa-mir-6828] | -1.45 | -0.163 | 0.169 | 0.334 | 0.125
CUGUGGUGGCUGCUCAUGCACCACGG [hsa-mir-105-1] | 1.44 | -0.868 | -1.05 | -0.558 | -0.574
CUGUGGUGGCUGCUUAUGCACCACGG [hsa-mir-105-2] | 1.15 | 0.62 | 0.363 | -0.626 | -0.102
CUGUGGUUUGCUGGCUGCCUCAG [hsa-mir-6736] | -0.566 | 0.2 | 0.467 | 0.776 | -0.353
